For data set [1], the target named is T1, MrPPK (Meiothermus ruber, UniProt M9XB82).
T1 construct: gene K649_10090; expressed in E. coli SHuffle T7 Express; IMAC and desalting
T1 sequence (M9XB82 1-267): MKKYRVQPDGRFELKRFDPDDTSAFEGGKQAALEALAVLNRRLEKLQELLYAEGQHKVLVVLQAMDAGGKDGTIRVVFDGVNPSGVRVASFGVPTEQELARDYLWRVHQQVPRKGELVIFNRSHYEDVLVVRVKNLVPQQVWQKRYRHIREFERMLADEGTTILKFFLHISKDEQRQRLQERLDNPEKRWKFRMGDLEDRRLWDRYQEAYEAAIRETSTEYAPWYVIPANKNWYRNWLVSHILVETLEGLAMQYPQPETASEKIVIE
Briefly: HPLC product quantification, Michaelis-Menten fit limited to data without substrate inhibition. The data set is classed as biochemical. The following applies: sodium polyphosphate as phosphate donor (standard assay 5 mM), MgCl2 20 mM, tris pH 8.0, 40 °C; not a true KM; reduced activity above 14 mM substrate. From the text:
HPLC product quantification, Michaelis-Menten fit limited to data without substrate inhibition on MrPPK

Data set [2] deals with NC(=O)c1ncn([C@@H]2O[C@H](COP(=O)(O)O)[C@@H](O)[C@H]2O)c1N. Briefly: purified protein. The following applies: sodium polyphosphate as phosphate donor (standard assay 5 mM), MgCl2 20 mM, tris pH 8.0, 30 °C.
Substrate in data set [3]: NC(=O)c1[nH]cnc1N
The data set is described as follows: HPLC product quantification, Michaelis-Menten fit. The data set is classed as biochemical, Escherichia coli. The conditions noted are these: co-substrate PRPP, MgCl2 20 mM, tris pH 8.0, standard assay 40 °C (kinetics under conditions optimized for each cascade), text b32 gives 6.2. From the text: HPLC product quantification, Michaelis-Menten fit on EcAPT

A value given as a limit tells only on which side of the number the result lay.

Broadly, the Km is the substrate concentration at which the rate is half of its maximum. The term Vmax denotes the rate approached at saturating substrate.

With `NC(=O)c1ncn([C@@H]2O[C@H](COP(=O)(O)O)[C@@H](O)[C@H]2O)c1N` [ZMP], in data set [1], the Michaelis-Menten constant (Km) is above 8.6 mM.
With AjPPK (Acinetobacter johnsonii), in data set [2], the Michaelis-Menten constant (Km) was determined as 8.2 ± 1.4 mM and the maximal velocity (Vmax) came to 67 µmol/min/mg.

B1: EcAPT (Escherichia coli K-12) (protein)
chain: MTATAQQLEYLKNSIKSIQDYPKPGILFRDVTSLLEDPKAYALSIDLLVERYKNAGITKVVGTEARGFLFGAPVALGLGVGFVPVRKPGKLPRETISETYDLEYGTDQLEIHVDAIKPGDKVLVVDDLLATGGTIEATVKLIRRLGGEVADAAFIINLFDLGGEQRLEKQGITSYSLVPFPGH
notes: expressed in E. coli BL21(DE3); IMAC and desalting
For the molecule B1, in data set [3], the Michaelis-Menten constant (Km) is 6.3 ± 2.3 mM and the maximum rate (Vmax) was 8.6 µmol/min/mg.

The record behind these values is article PMC9299608, “A Multi‐enzyme Cascade for the Biosynthesis of AICA Ribonucleoside Di‐ and Triphosphate” (Chembiochem, 2021).
